Data on 2 substances can be found in paper PMC11886768 (2025).

One assay concerns the target AD-COP1 (UniProt P43254). In words: yeast three-hybrid (Y3H) competition assay (BD-HY5, AD-COP1). The conditions noted are these: read off a plot.
In another assay the target is E-COP1 (UniProt P43254). In words: mammalian three-hybrid (M3H) assay, GFP co-expressed as control third protein. The conditions noted are these: CHO-K1 cells, 24 h, parent: est. 150, read off a plot.
E-COP1, sequence (P43254 whole entry): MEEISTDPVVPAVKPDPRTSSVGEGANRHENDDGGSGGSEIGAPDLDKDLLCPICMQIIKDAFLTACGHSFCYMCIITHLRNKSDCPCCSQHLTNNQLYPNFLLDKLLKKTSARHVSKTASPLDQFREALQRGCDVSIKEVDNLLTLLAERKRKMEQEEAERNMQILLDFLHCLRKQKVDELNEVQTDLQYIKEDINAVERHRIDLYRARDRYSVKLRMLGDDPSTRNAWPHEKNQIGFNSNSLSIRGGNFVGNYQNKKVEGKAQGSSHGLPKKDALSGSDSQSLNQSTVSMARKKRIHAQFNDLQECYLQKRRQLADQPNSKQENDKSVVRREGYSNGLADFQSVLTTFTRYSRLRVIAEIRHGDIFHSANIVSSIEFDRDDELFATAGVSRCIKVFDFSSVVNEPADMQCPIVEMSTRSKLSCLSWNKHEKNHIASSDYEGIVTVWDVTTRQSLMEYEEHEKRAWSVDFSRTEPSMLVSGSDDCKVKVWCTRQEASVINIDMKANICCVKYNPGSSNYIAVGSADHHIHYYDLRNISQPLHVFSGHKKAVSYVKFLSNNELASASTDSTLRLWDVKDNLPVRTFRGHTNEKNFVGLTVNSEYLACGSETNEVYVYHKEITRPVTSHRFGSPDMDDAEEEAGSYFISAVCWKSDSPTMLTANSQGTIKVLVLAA

AD-COP1, sequence (P43254 whole entry): as above

For “CCT1 (yeast three-hybrid 'bridge protein') V548A; P549A”, the other: COP1-HY5 interaction signal (β-galactosidase activity) with the CCT1 variant as bridge protein with AD-COP1 (1 day in darkness, followed by exposure to 50 μmol m−2 s−1 blue light for 1 day, no-bridge control est. 5.7, higher signal = less displacement of HY5 by the …, parent: est. 1.7) turned out to be 6.9 Miller units; with AD-COP1 (darkness for 2 days, no-bridge control est. 8.5, higher signal = less displacement of HY5 by the CCT1 variant, parent: est. 3.1), 7.8 Miller units.
Turning to “HY5 fused to the herpes simplex virus-derived transactivation domain (VP16) (from UniProt O24646) HY5-VPAA (VP motif to AA; positions not printed)”, the response (Au (SEAP/sNLuc)) was 7 with E-COP1 (blue light (10 μmol m−2 s−1)) and 5 in the assay with E-COP1 (darkness).
